Where “and” joins values, the source holds several entries; their conditions need not be identical. Identical values can stand only once.
What was measured:
[1] = biological target: aE11 IgG (mouse); assay: SPR; aE11 IgG amine-coupled to a CM5 chip (~7000 RU), monomeric C9 as analyte; Biacore T200, 25 °C; 10 mM HEPES-NaOH pH 7.2, 150 mM NaCl, 1 mM EDTA, 0.005% P20; multi-cycle kinetics; off rate from a simple exponential decay (1:1 model); steady state not reached
[2] = biological target: monoclonal mouse antibody aE11 (full IgG) (mouse); assay: SPR; aE11 IgG amine-coupled to a CM5 chip (~7000 RU), monomeric C9 as analyte; Biacore T200, 25 °C; 10 mM HEPES-NaOH pH 7.2, 150 mM NaCl, 1 mM EDTA, 0.005% P20; multi-cycle kinetics; off rate from a simple exponential decay (1:1 binding model); n = 2
Sequence of monoclonal mouse antibody aE11 (full IgG) (mouse) (heavy, as listed by the source, chain 1 of 2): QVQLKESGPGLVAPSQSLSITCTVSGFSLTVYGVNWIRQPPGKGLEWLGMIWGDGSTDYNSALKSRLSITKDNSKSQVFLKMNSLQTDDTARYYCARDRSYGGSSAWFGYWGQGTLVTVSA
Sequence of monoclonal mouse antibody aE11 (full IgG) (mouse) (light, as listed by the source, chain 2 of 2): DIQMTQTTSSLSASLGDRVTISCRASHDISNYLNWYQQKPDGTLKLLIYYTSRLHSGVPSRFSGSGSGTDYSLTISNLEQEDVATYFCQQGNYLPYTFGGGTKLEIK

[3] = biological target: polyC9 (in vitro homo-oligomerised human C9, wild type) (human); assay: cryo-EM structure; aE11-Fab mixed with polyC9 in stoichiometric quantities; 1 mg/ml in 10 mM HEPES, 50 mM NaCl, pH 7.2; symmetry expansion and focused refinement of three C9 protomers and two Fab variable regions

Sequence of aE11 IgG (mouse) (heavy, as listed by the source, chain 1 of 2): as the sequence (heavy, as listed by the source, chain 1 of 2) above
Sequence of aE11 IgG (mouse) (light, as listed by the source, chain 2 of 2): as the sequence (light, as listed by the source, chain 2 of 2) above
Sequence of monomeric human C9, wild type (recombinant) (P02748 22-559): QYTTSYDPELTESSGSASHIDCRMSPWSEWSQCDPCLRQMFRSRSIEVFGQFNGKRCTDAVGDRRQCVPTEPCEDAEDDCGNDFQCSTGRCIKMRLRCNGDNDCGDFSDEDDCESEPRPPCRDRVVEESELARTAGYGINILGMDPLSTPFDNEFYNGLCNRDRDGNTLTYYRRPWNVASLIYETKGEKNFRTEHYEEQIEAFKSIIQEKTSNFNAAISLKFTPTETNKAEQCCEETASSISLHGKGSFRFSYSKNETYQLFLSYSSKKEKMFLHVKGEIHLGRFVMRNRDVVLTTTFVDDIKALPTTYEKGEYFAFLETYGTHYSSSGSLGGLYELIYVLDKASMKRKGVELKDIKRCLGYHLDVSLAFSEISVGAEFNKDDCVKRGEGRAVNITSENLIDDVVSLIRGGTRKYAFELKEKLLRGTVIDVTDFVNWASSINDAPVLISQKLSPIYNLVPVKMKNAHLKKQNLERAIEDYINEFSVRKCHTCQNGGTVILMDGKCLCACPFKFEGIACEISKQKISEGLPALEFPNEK
Sequence of human complement C9, wild type, monomeric (P02748 22-559): as above

Row | Substance | koff [1] | koff [2] | other results
1 | disulphide-trapped C9 variant (F262C/V405C) (from UniProt P02748 22-559) (natural protein) | 0.0001 s⁻¹ |  | 
2 | human complement C9 F262C/V405C, disulphide-trapped, monomeric (from UniProt P02748 22-559) (natural protein) |  | 0.000267 s⁻¹ and 0.000353 s⁻¹ | 
3 | human complement C9 P72E, monomeric (from UniProt P02748 22-559) (natural protein) |  | 0.000106 s⁻¹ and 6.14e-05 s⁻¹ | 
4 | human complement C9 R65Q, monomeric (from UniProt P02748 22-559) (natural protein) |  | 0.000214 s⁻¹ and 8.63e-05 s⁻¹ | 
5 | human complement C9 V68E, monomeric (from UniProt P02748 22-559) (natural protein) |  | 3.11e-05 s⁻¹ and 3.58e-05 s⁻¹ | 
6 | human complement C9, wild type, monomeric (from UniProt P02748 22-559) (natural protein) |  | 0.000169 s⁻¹ and 0.000183 s⁻¹ | 
7 | monomeric human C9 P72E (from UniProt P02748 22-559) (natural protein) | 0.0001 s⁻¹ |  | fold reduction of binding against wild-type monomeric C9 [1]: 2 fold
8 | monomeric human C9 R65Q (from UniProt P02748 22-559) (natural protein) | 0.0001 s⁻¹ |  | 
9 | monomeric human C9 V68E (from UniProt P02748 22-559) (natural protein) | 0.0001 s⁻¹ |  | fold reduction of binding against wild-type monomeric C9 [1]: 2 fold
10 | monomeric human C9, wild type (recombinant) (from UniProt P02748 22-559) (natural protein) | 0.0001 s⁻¹ |  | Kd [1]: 500 to 2000 nM
11 | polyC9 (in vitro homo-oligomerised human C9, wild type) (complex) |  |  | stoichiometry N [3]: 22
